Measured values: article PMC2891831, “Insight into the Mechanisms of Adenovirus Capsid Disassembly from Studies of Defensin Neutralization” (PLoS Pathogens, 2010)
“Also recorded” adds a separate entry of the source.

Key:
[1] = test system: binding of HAdV-5 to A549 cells (CAR receptor); experiment: Fiber knob competition assay: binding of labeled HAdV-5 to cells; assay type: cell-based, human
Method: Figure 3 HD5 antiviral activity is structure dependent. A) Ribbon representation of HD5 (PDB 1ZMP). Three disulfide bonds are numbered, and the two residues comprising the conserved salt bridge (R6 and E14) are indicated. B) Ad5.eGFP was incubated with 15 µM of each of the indicated defensins. HD5-Abu is HD5 with the six cysteines replaced with L-α-aminobutyric acid. Data are the mean percent of eGFP positive cells compared to control cells infected in the absence of defensin for at least three independent experiments ± SD. C) Binding of Alexa Fluor 488-labeled HAdV-5 to cells was assessed after incubation with or without 20 µM HD5 or HD5-Abu and in competition with 100 nM 5FK or 16 FK. Data are the mean fold increase in geometric mean fluorescence compared to cells alone and are of at least 10,000 cells from each of three independent experiments ± SD.
In order to determine the receptor-dependence of this effect, we pre-incubated cells with recombinant fiber knob from HAdV-5 (5FK) to block receptor (CAR) interactions and measured cell binding of fluorescently labeled HAdV-5 that was pre-incubated with or without HD5 or HD5-Abu (Figure 3C). Cells incubated with fiber knob from HAdV-16 (16FK), which binds CD46, served as a control. We observed that virus binding to cells was reduced 5.2-fold in the presence of 5FK compared to 16FK. […]

HAdV-7p = experiment: Virus-defensin binding assay, HAdV-7p; parameters: species or system human adenovirus; conditions: 20 µM HD5, mean of two or three independent experiments ± SD
Excerpt: Figure 2 HD5 binding to HAdV. A) HD5 binding to a representative defensin-sensitive serotype (HAdV-5) was quantified by an equilibrium-binding assay. Data are the mean of the number of HD5 molecules bound per virion at the indicated HD5 concentrations from at least three independent experiments ± SD. Binding curves were fitted using Prism software. B) Binding of HD5 to additional defensin-sensitive (HAdV-7p) and resistant (HAdV-19c, -25p, -51p) serotypes expressed as a percent of HD5 bound to HAdV-5. Data are the mean of two or three independent experiments ± SD.
We assessed HD5 binding to additional serotypes after incubation with 20 µM HD5 (Figure 2B). The sensitive serotype HAdV-7p bound 69.3±15.9% of the amount of HD5 bound to HAdV-5 in parallel samples; whereas, the corresponding values for the resistant serotypes HAdV-19c, -25p, and -51p were 32.5±7.5%, 3.3±5.8%, and 24.6±12.0%, respectively.
To measure HD5 binding to HAdV-5 and -51, HD5 was serially diluted in PBS and mixed with 5 µg purified virus. […] The other half of each sample was used to make a standard curve for quantification. […] Virus bands were quantified using ImageQuant NT software (GE Healthcare). […] The amount of HD5 in the centrifuged samples was then quantified against the standard curve using Prism software. […]

B1: HD5: human alpha-defensin; synthetic, obtained from Peptides International; three disulfide bonds (PDB 1ZMP) (peptide, UniProt Q01523 20-94, looked up)
Defensin alpha 5: ESLQERADEATTQKQSGEDNQDLAISFAGNGLSALRTSGSQARATCYCRTGRCATRESLSGVCEISGRLYRLCCR
modifications: Defensin-5
B1 was tested, and the “interaction with CAR receptor in presence of HD5” value ([1]; 20 µM HD5, competition with 5FK) was “does not completely block the interaction with CAR receptor; also recorded: capacity of fiber to bind to CAR was not compromised by HD5 binding”, the “effect on virus binding to cells” value ([1]; virus pre-incubated with 20 µM HD5 or HD5-Abu, Alexa Fluor 488, fold increase in geometric mean fluorescence, three independent experiments) was “increased virus binding to cells; also recorded: enhanced by HD5” and the “HD5 bound, percent of HD5 bound to HAdV-5” value (HAdV-7p) was 69.3±15.9%.
